Test results as given in patent publication EP4036575A1 (Yeda Research and Development Co. Ltd, dated 2022).

Target: T1, mouse recombinant His-calmodulin (mouse, UniProt P0DP26 1-149)
T1 construct: also called His-CaM; His-tagged calmodulin
Test: SPR (Biacore), His-CaM immobilised on CM5, analyte preincubated with 0.3 mM CaCl2

## KRRWKKNFIAVSAANRFKKISSSGAL
  Kd: 8.8 nM
